Assay results taken from patent US20260042847A1 (Zymeworks, published 2026).
Where a chain is given by its changes, count along the chain named. One block for each binder: values may come before it.

Legend:
c-Met [1] = target: T1, c-Met (UniProt P08581 25-1390, limits assumed); test: flow cytometry on H292 cells, apparent Kd
T1 construct: whole, on cells; Target on cells

c-Met [2] = target: T1, c-Met; test: flow cytometry on EBC-1 cells, apparent Kd
c-Met [3] = target: T1, c-Met; test: flow cytometry on BT-20 cells, apparent Kd
c-Met [4] = target: T1, c-Met; test: flow cytometry on EBC-1 cells, apparent Kd; remark: listed apart in the source
[5] = target: T2, Human FcRn with a C-terminal biotin on the large subunit (Human, UniProt P55899 24-297; P61769 21-119, C-terminal biotin); test: SPR, FcRn captured, antibody injected, pH 5.9
T2 construct: Captured on neutravidin for SPR; also called neonatal Fc receptor

CD64a (FcγRI) = CD64a (FcγRI) (UniProt P12314 16-288, limits assumed); test: SPR, antibody captured on Protein A, FcγR injected
Sequence of CD64a (FcγRI) (P12314 16-288 limits assumed): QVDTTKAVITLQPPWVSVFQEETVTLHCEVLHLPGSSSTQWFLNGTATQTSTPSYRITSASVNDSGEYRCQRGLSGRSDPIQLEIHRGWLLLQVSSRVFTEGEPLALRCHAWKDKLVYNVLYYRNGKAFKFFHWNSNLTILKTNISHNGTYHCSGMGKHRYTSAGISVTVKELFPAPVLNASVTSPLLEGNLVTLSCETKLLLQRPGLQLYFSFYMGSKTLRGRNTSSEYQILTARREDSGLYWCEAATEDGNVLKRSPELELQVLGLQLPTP

[6] = target: T3, CD32a (FcγRIIA), allelic form His131 (UniProt P12318 36-218, limits assumed); test: SPR, antibody captured on Protein A, FcγR injected
T3 construct: also called CD32aH
T3 sequence (looked up): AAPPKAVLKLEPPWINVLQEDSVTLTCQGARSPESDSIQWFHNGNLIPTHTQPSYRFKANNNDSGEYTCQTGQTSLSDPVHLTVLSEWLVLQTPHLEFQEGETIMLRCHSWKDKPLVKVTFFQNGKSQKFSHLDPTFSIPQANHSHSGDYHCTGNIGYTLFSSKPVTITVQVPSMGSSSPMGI

[7] = target: T4, CD32a (FcγRIIA), allelic form Arg131 (UniProt P12318 36-218, limits assumed); test: SPR, antibody captured on Protein A, FcγR injected
T4 construct: also called CD32aR
T4 sequence (looked up): T3 sequence (looked up) with H132R

CD32b (FcγRIIB) = target: T5, CD32b (FcγRIIB) (UniProt P31994 43-217, limits assumed); test: SPR, antibody captured on Protein A, FcγR injected
T5 construct: The 'Y' of CD32bY is not explained; also called CD32bY
T5 sequence (looked up): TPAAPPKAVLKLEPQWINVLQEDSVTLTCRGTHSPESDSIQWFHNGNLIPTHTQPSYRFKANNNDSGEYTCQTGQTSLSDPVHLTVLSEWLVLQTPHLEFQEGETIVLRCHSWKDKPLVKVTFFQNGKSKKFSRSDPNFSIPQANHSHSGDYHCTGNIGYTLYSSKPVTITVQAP

[8] = target: CD16a (FcγRIIIA), allelic form F158 (UniProt P08637 17-208); test: SPR, antibody captured on Protein A, FcγR injected
Sequence of CD16a (FcγRIIIA), allelic form F158 (P08637 17-208 limits assumed): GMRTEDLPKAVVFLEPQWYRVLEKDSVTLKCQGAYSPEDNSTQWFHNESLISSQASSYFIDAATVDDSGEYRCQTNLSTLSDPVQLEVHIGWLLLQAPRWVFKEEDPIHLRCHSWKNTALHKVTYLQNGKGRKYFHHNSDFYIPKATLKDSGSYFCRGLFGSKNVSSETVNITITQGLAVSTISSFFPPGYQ

[9] = target: T6, CD16a (FcγRIIIA), allelic form V158 (UniProt P08637 17-208); test: SPR, antibody captured on Protein A, FcγR injected
T6 construct: also called CD16aV
T6 sequence (P08637 17-208 F176V limits assumed): as the sequence (P08637 17-208 limits assumed) above, with F160V counted along it

c-Met [10] = target: T1, c-Met; test: flow cytometry on EBC-1 cells

T1 sequence (P08581 25-1390 limits assumed): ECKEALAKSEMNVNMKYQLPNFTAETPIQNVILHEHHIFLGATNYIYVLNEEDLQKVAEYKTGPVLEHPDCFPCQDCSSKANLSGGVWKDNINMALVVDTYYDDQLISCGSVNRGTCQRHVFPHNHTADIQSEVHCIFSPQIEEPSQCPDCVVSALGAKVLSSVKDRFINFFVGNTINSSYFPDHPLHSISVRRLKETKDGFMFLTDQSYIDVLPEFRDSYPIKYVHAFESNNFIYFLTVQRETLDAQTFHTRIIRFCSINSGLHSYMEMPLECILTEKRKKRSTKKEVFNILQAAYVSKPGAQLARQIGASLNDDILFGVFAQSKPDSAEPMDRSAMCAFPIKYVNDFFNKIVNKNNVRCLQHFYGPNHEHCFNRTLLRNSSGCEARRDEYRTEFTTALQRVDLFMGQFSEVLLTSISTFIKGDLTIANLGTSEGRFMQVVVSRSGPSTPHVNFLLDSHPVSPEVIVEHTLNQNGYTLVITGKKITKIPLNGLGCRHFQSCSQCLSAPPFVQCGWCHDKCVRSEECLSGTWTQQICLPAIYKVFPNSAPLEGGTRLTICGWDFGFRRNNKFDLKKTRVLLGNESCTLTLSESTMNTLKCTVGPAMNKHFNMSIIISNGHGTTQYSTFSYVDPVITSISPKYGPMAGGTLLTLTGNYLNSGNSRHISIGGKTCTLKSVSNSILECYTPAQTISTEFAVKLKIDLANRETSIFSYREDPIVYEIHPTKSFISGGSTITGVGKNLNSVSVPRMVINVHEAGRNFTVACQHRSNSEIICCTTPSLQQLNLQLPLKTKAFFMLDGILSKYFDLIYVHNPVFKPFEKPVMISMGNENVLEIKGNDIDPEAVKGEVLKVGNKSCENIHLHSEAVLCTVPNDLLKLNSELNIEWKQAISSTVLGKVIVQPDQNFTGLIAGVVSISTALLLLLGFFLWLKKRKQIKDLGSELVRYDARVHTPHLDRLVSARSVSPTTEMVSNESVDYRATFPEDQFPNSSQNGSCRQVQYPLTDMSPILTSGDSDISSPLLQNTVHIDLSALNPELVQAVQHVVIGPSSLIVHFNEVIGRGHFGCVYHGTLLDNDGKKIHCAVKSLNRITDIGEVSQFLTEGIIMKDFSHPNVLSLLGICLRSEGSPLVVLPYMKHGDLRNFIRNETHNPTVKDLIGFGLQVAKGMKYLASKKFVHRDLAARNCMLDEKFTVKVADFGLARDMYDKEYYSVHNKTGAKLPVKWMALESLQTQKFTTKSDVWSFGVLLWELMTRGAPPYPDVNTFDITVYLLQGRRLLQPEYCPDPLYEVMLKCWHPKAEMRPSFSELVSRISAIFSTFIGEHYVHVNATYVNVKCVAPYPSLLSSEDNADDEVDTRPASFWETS

Kd (c-Met [1]): 0.02 nM | Kd (c-Met [2]): 0.1 nM | Kd (c-Met [3]): 0.02 nM | Kd (c-Met [4]): 0.14 nM | Kd [5]: 297 nM | Kd (CD64a (FcγRI)): 0.0486 nM | Kd [6]: 410 nM | Kd [7]: 588 nM | Kd (CD32b (FcγRIIB)): 2630 nM | Kd [8]: 1450 nM | Kd [9]: 461 nM
B1: v17427 (antibody)
chain 1: QVQLVQSGAEVKKPGASVKVSCKASGYIFTAYTMHWVRQAPGQGLEWMGWIKPNNGLANYAQKFQGRVTMTRDTSISTAYMELSRLRSDDTAVYYCARSEITTEFDYWGQGTLVTVSSASTKGPSVFPLAPSSKSTSGGTAALGCLVKDYFPEPVTVSWNSGALTSGVHTFPAVLQSSGLYSLSSVVTVPSSSLGTQTYICNVNHKPSNTKVDKKVEPKSCDKTHTCPPCPAPELLGGPSVFLFPPKPKDTLMISRTPEVTCVVVDVSHEDPEVKFNWYVDGVEVHNAKTKPREEQYNSTYRVVSVLTVLHQDWLNGKEYKCKVSNKALPAPIEKTISKAKGQPREPQVYVYPPSRDELTKNQVSLTCLVKGFYPSDIAVEWESNGQPENNYKTTPPVLDSDGSFALVSKLTVDKSRWQQGNVFSCSVMHEALHNHYTQKSLSLSPG
chain 2: not shown
chain 3: not shown

fold greater Kd against control v17427 (c-Met [10]): 5 fold | Kd (c-Met [2]): 0.57 nM | Kd [5]: 208 nM | Kd (CD64a (FcγRI)): 143 nM
B2: v29001 (antibody)
chain 1: QVQLVQSGAEVKKPGASVKVSCKASGYIFTAYTMHWVRQAPGQGLEWMGWIKPNNGLANYAQKFQGRVTMTRDTSISTAYMELSRLRSDDTAVYYCARSEITTEFDYWGQGTLVTVSSASTKGPSVFPLAPSSKSTSGGTAALGCLVKDYFPEPVTVSWNSGALTSGVHTFPAVLQSSGLYSLSSVVTVPSSSLGTQTYICNVNHKPSNTKVDKKVEPKSCDKTHTCPPCPAPELLGGPSVFLFPPKPKDTLMISRTPEVTCVVVDVSHEDPEVKFNWYVDGVEVHNAKTKPREEQYNSTCYRVVSVLTVLHQDWLNGKEYKCKVSNKALPAPIEKTISKAKGQPREPQVYVYPPSRDELTKNQVSLTCLVKGFYPSDIAVEWESNGQPENNYKTTPPVLDSDGSFALVSKLTVDKSRWQQGNVFSCSVMHEALHNHYTQKSLSLSPG
chain 2: B2 chain 1 with Y353L, T368L, K394L, T396W, A407F, V409Y
chain 3: not shown
